Reference: the supplement of paper PMC7125110
± gives the standard error. Fewer inactive variants are shown than the library holds.

B1: glmS ribozyme (parent)
chain: AUAAAAGCGCCAGAACUACAGAAAUGUAGUUGACGAGGAGGAGGUUUAUCGAAUUUUCGGCGGAUGCCUCCAAA

Assays:
Details in all cases: with glucosamine-6-phosphate
glucosamine-6-phosphate [1] = variants of: B1; assay: self-cleavage kobs at 640 uM GlcN6P; higher = faster cleavage; RNA array
How it was run: (§1)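 Glucosamine-6-phosphate, from 40 μM to 10 mM in HEPES/KCl/Mg(OAc)2 buffer, was flowed over sequenced MiSeq chips carrying barcoded ribozyme variants transcribed in situ by E. coli RNA polymerase. A hybridised Cy3 probe tracked the variants at 37 °C as tiles were imaged over ~14 h. kobs, kcat and KM were obtained by fitting normalised per-tile medians to exponential decays and then applying weighted Michaelis–Menten fits across concentrations.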

glucosamine-6-phosphate [2] = variants of: B1; assay: self-cleavage kobs at 2500 uM GlcN6P; higher = faster cleavage; RNA array
How it was run: as §1

glucosamine-6-phosphate [3] = variants of: B1; assay: self-cleavage kobs at 10000 uM GlcN6P; higher = faster cleavage; RNA array
How it was run: as §1

Row | Variant | self-cleavage kobs at 640 uM GlcN6P (glucosamine-6-phosphate [1]) [s⁻¹] | self-cleavage kobs at 2500 uM GlcN6P (glucosamine-6-phosphate [2]) [s⁻¹] | self-cleavage kobs at 10000 uM GlcN6P (glucosamine-6-phosphate [3]) [s⁻¹]
1 | U30G G37A A53G | 0.000102 ± 2.5e-05 |  | 
2 | A6U A33G U69G | 9.46e-05 ± 3.6e-05 | 0.000191 ± 6.5e-05 | 
3 | A6G A48G C61G | < 1e-05 |  | 
4 | G9A A42G A52G | < 1e-05 |  | 
5 | A6G A14C C34U | < 1e-05 |  | 
6 | C11A A33G A48C C67U | < 1e-05 | < 1e-05 | 
7 | A12U A39C A42U G60A | < 1e-05 |  | < 1e-05
8 | C19A A33U C50G U56C C58U G63U C68G | 0.000599 ± 0.00016 |  | 
9 | A6C G35U C71A | < 1e-05 | < 1e-05 | 
10 | C8A C11G G59C C61U | < 1e-05 | < 1e-05 | 
11 | G35U A39U U45G U46C | < 1e-05 | < 1e-05 | 
12 | C16U G29U U31A | 0.00108 ± 0.00033 | 0.0037 ± 0.00095 | 
13 | A15C A48U C68U | < 1e-05 |  | 
14 | A12G C16A A52U U57G | < 1e-05 |  | 
15 | G9A C50U | < 1e-05 | < 1e-05 | < 1e-05
16 | G40U G41A A42U U54G G60U C71U | < 1e-05 | < 1e-05 | < 1e-05
17 | U65G U69C C71U | 6.22e-05 ± 1.6e-05 | 6.97e-05 ± 2.6e-05 | 
18 | C11G G29C G59C | < 1e-05 |  | 
19 | C10U A12U G29C G41U C70U | < 1e-05 | < 1e-05 | 
20 | G13C U46G A53U U54A | < 1e-05 |  | 
21 | A6G G41A G43C C50G C61U | < 1e-05 | < 1e-05 | 
22 | G9A U57A | < 1e-05 | < 1e-05 | 

Row | Variant | self-cleavage kobs at 640 uM GlcN6P (glucosamine-6-phosphate [1]) [s⁻¹] | self-cleavage kobs at 2500 uM GlcN6P (glucosamine-6-phosphate [2]) [s⁻¹] | self-cleavage kobs at 10000 uM GlcN6P (glucosamine-6-phosphate [3]) [s⁻¹]
23 | A6U A36C A39U C71G | < 1e-05 | < 1e-05 | 
24 | G9A G44C A53G U57A | < 1e-05 | < 1e-05 | < 1e-05
25 | G13U U30G G35C | < 1e-05 | < 1e-05 | < 1e-05
26 | G13C C16G G41A | < 1e-05 |  | 
27 | G9C G40A G66U C68G | < 1e-05 |  | 
28 | C8G A14U A42G | < 1e-05 |  | 
29 | A12U C16A C50A A64G | < 1e-05 |  | 
30 | A15U G40U U55A U56A | 5.38e-05 ± 1.6e-05 |  | 
31 | G40A G41A A42U C68G | < 1e-05 | < 1e-05 | 
32 | G35C G43U A52U C61U | < 1e-05 | < 1e-05 | 
33 | C10U A52C C58G | < 1e-05 | < 1e-05 | 
34 | U30A G40U G60C C61A | < 1e-05 | < 1e-05 | 
35 | G44U A48U C67U | 0.000119 ± 4.8e-05 | 0.000418 ± 0.00012 | 
36 | A14G G35A G43A C61U | < 1e-05 |  | 
37 | A48C U49G | < 1e-05 |  | < 1e-05
38 | G35U C58U A64U C68A | < 1e-05 |  | 
39 | G7A A15U A53G | < 1e-05 |  | 
40 | C10G A15C A36U | < 1e-05 |  | 
41 | A42U U57G | < 1e-05 | < 1e-05 | 
42 | G21U U69G | 6.25e-05 ± 1.4e-05 | 9.89e-05 ± 2e-05 | 
43 | G43A U55A C58U | < 1e-05 |  | 
44 | C34A C67A C71U | < 1e-05 |  | 

Row | Variant | self-cleavage kobs at 640 uM GlcN6P (glucosamine-6-phosphate [1]) [s⁻¹] | self-cleavage kobs at 2500 uM GlcN6P (glucosamine-6-phosphate [2]) [s⁻¹] | self-cleavage kobs at 10000 uM GlcN6P (glucosamine-6-phosphate [3]) [s⁻¹]
45 | A14U U65A C70U | 0.000274 ± 4.7e-05 | 0.000248 ± 9.4e-05 | 0.000945 ± 0.0002
46 | C8G G9C A39C | < 1e-05 | < 1e-05 | 
47 | G44U A48U A64G C67G | 0.000188 ± 7.9e-05 | 0.000485 ± 0.00017 | 
48 | C34G U46G U65A | < 1e-05 | < 1e-05 | 
49 | C16A A36G U65G C71U | < 1e-05 |  | 
50 | G7U G35U C58U C70A C71U | < 1e-05 |  | 
51 | A12U A14G U30G A33G G66A | < 1e-05 | < 1e-05 | 
52 | G32A G44U A53C | < 1e-05 | < 1e-05 | 
53 | U30A A33C G40A C71U | < 1e-05 |  | 
54 | C11U U30A C34U A36G U69A | 0.000685 ± 0.00016 |  | 
55 | U47A G66C | 0.000329 ± 7.2e-05 | 0.000448 ± 0.00013 | 
56 | G9C G32U C50U | < 1e-05 |  | 
57 | G7A G44A U46C A48U | < 1e-05 | < 1e-05 | 
58 | G43C U49A U57G C68G | < 1e-05 |  | 
59 | U30C C34A A36G A52U | < 1e-05 | < 1e-05 | 
60 | A6G G9C G60C G63A C68U | < 1e-05 |  | 
61 | A36C G37A G43U C61G C67A | < 1e-05 | < 1e-05 | 
62 | G29U G66C | 4.59e-05 ± 1.9e-05 | 9.16e-05 ± 2.9e-05 | 
63 | G37U C50A G51C | < 1e-05 |  | 
64 | A6G G38U | < 1e-05 | < 1e-05 | < 1e-05
65 | G41U G59U G63U | < 1e-05 |  | 
